In patent US12018327B2, “Methods and compositions relating to epoxide hydrolase genes” (The Regents of the University of California, priority 2018, dated 2024):

Columns and labels:
PPARγ = target: T1, PPARγ (Homo sapiens, UniProt P37231); conditions: ref [19]; cited from earlier work
T1 sequence (P37231 1-505): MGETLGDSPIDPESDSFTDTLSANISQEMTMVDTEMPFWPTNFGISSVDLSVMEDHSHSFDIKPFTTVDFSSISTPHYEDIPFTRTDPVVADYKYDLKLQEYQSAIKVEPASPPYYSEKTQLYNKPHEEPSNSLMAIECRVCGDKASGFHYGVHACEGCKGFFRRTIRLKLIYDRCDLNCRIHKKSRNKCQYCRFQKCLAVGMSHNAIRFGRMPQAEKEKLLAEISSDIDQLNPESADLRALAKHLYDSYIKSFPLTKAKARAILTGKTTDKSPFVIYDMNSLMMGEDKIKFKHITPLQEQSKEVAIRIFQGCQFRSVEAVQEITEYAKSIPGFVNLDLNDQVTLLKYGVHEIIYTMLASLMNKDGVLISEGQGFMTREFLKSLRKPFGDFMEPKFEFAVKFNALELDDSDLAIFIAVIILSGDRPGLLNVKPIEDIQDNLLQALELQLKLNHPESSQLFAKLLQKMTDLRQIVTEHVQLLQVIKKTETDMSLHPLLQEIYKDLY

[1] = Colorimetric detection of EH activity, 12,13 EpOME; type: biochemical; conditions: gene expressed in E. coli BL21

CCCCC/C=C\CC(O)C(O)CCCCCCCC(=O)O (stereo not shown) [9,10 DiHOME]
action on PPARγ (PPARγ): known agonist

B1: YP_003971333: Bifidobacterium bifidum PRL2010 hydrolase (epoxide hydrolase) encoded by Gene 3, expressed in E. coli (protein)
chain: MASDDIMTAGAGGATATVRADIKAAFFDIDGTLTSFVTHVIPQSSIDALHELQDRGVKVFICSGRAPSHMTVVLDMMPVHFDGIIALNGQYCFDDHGLLEKESLLPEDIVTITRWLDEHPDVVANYCEKDYVYFNQITDAMRATWRQLGKTAPTVNIDDPHERALKHETFQISPYISFEDEAKLSGMCRNVRGVRWHPDFTDLIPADGGKPEGMKRFMRHYGWTREQTIAFGDGGNDADMLAFAGIGVAMGNATEPAKAAADYITDDVDHDGIMNALKHFNVL
conversion of 12,13 EpOME into 12,13 DiHOME [1]: could convert

B2: YP_003971091: Bifidobacterium bifidum PRL2010 hydrolase (epoxide hydrolase) encoded by Gene 2, expressed in E. coli (protein)
chain: MSQHQVTTRQRRNVVLLDLDGTLTQSDPGIIACATKAFEELSLPVPDDQEMHRFIGPAIIESFRRNHMPDELLDRGVEIYREYYADKAVFDDPNNPGHKIPGRLYNSVYAGIPEQLAALRADGLHLAIATCKPQYQAEPVCEHFHLDTMVDGIYGASTDNSRIDKDQVIRYCFDSIGFDADAGDRALMVGDRWTDVDGAIACGLDCLGCRWGYAEAGELEEHGAYRIIDTVDELAAAVNDYFAK
conversion of 12,13 EpOME into 12,13 DiHOME [1]: could convert

B3: NP_814872: Enterococcus faecalis epoxide hydrolase (HAD superfamily hydrolase) encoded by Gene 1, expressed in E. coli (protein)
chain: MSIKLVAIDIDGTLLNSQHKITPRVKEALQKANEQGVRIVLCTGRPLPGVKEQLDELALYGENDFVITYNGSLVQATKDNTIISRYTLSYEDFLEIEMYSRKVGAHLHTIDDSAIYTANRNIGKYTIHEASLVNMPLKYRTVDEMTPEMNIIKMMMIDEPEVLDPAIAKLPLHFTEKYTTVKSTPFYYEIMNKNASKGNALAKLADHLGLNKDEVMAIGDNENDLSMIDYAGIGVAMGNATENVKTIADVHTTSNDEDGVAQIIEKMVLI
conversion of 12,13 EpOME into 12,13 DiHOME [1]: could convert
